3 molecules from PMC7064531, “Structure of E3 ligase E6AP with a proteasome-binding site provided by substrate receptor hRpn10” (Nature Communications, 2020) can be followed below.

Common to all, as to conditions: both partners purified
Experiment [1] addresses T1, full-length E6AP (Isoform II) (human, UniProt Q05086 1-875).
T1 construct: E6AP/UBE3A, isoform II, full length; catalytic cysteine C843 in isoform II; also called UBE3A; source: bought: UBPBio K1411
The experiment is described as follows: pull-down; 2 nmol His-tagged hRpn10 construct on Ni-NTA agarose, 200 pmol E6AP for 1 h; 10 mM MOPS pH 6.5, 50 mM NaCl, 5 mM 2-mercaptoethanol, 10 μM zinc sulfate; Coomassie staining.

For experiment [2], the target named is T2, hRpn10^305–377 (RAZUL, Rpn10 AZUL-binding domain) (human, UniProt P55036 305-377).
T2 construct: Isotope-labelled (15N, 13C, 2H) in some NMR samples; also called hRpn10 RAZUL; source: E. coli Rosetta 2 (DE3), purified (glutathione sepharose, PreScission cleavage, SEC); not shown: GST, N-terminal, cleaved
T2 sequence (looked up): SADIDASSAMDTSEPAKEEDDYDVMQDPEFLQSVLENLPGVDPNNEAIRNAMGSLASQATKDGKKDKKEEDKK
The experiment is described as follows: ITC; 25 °C, MicroCal iTC200; E6AP AZUL injected into hRpn10 305-377 (0.0405 mM) or hRpn10 322-366 peptides (0.01 mM) in the cell; 10 mM MOPS pH 6.5, 50 mM NaCl, 5 mM DTT, 10 μM zinc sulfate; one-site fit. A general note: In ITC the heat of successive injections is recorded.

Another experiment has as its target T3, GST-hRpn10^305–377 (human, UniProt P55036 305-377).
T3 construct: pGEX-6P-3; a PreScission site lies between GST and hRpn10; source: E. coli Rosetta 2 (DE3), purified (glutathione sepharose, glutathione elution, SEC); not shown: GST, N-terminal, kept
T3 sequence (looked up): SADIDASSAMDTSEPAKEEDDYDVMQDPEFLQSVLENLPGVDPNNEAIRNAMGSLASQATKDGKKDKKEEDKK
Kind of experiment: SPR; Biacore T200; GST-hRpn10 305-377 captured (800 RU) by anti-GST antibody on a CM5 chip, GST on the reference cell; E6AP AZUL 5-250 nM in HBS-P+ with 10 μM zinc sulfate, single cycle kinetics, triplicate. (In general: Surface plasmon resonance follows binding to a sensor surface in real time, without labels.)

A further experiment addresses ubiquitin (UniProt P0CG48 1-76). Kind of experiment: NMR titration; 2D NMR on 15N-hRpn10 196-377, ubiquitin added; 25 °C, 10 mM MOPS pH 6.5, 50 mM NaCl, 5 mM DTT, 10 μM zinc sulfate.

T1 sequence (Q05086 whole entry, canonical isoform): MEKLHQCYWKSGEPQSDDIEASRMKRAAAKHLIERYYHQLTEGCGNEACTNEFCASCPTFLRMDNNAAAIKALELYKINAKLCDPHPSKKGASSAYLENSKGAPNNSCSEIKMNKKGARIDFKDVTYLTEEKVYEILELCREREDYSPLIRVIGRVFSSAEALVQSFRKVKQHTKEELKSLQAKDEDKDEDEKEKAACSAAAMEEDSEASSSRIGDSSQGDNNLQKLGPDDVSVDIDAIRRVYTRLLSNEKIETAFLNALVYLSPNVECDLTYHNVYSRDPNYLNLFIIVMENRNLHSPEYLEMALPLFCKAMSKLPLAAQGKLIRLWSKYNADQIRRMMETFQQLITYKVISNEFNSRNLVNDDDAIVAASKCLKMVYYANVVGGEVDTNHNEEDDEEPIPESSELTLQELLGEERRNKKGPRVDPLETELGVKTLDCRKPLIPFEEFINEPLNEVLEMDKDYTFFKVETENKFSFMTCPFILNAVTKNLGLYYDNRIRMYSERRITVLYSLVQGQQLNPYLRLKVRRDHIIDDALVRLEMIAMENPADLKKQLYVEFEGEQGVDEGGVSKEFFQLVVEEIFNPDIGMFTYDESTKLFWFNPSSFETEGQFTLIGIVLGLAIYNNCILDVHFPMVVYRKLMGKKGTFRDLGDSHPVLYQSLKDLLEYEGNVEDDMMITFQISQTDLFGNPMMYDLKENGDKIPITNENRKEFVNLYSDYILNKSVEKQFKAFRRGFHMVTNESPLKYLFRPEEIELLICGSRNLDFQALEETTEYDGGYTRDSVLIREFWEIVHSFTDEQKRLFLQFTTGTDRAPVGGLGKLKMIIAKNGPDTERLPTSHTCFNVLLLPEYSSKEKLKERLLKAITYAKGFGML

B1: His-hRpn10^full-length (natural protein, human, UniProt P55036 1-377, looked up)
chain: MVLESTMVCVDNSEYMRNGDFLPTRLQAQQDAVNIVCHSKTRSNPENNVGLITLANDCEVLTTLTPDTGRILSKLHTVQPKGKITFCTGIRVAHLALKHRQGKNHKMRIIAFVGSPVEDNEKDLVKLAKRLKKEKVNVDIINFGEEEVNTEKLTAFVNTLNGKDGTGSHLVTVPPGPSLADALISSPILAGEGGAMLGLGASDFEFGVDPSADPELALALRVSMEEQRQRQEEEARRAAAASAAEAGIATTGTEDSDDALLKMTISQQEFGRTGLPDLSSMTEEEQIAYAMQMSLQGAEFGQAESADIDASSAMDTSEPAKEEDDYDVMQDPEFLQSVLENLPGVDPNNEAIRNAMGSLASQATKDGKKDKKEEDKK
notes: human Rpn10 (hRpn10/PSMD4/S5a), full length; pET11d plasmid, a gift from Dr Fumio Hanaoka; also called His6-hRpn10^full-length; source: E. coli BL21 (DE3), purified (Ni-NTA, imidazole elution, SEC); not shown: His6, N-terminal, kept
As to B1, the binding result in experiment [1] was “binds”.

B2: E6AP AZUL (amino-terminal zinc-binding domain of ubiquitin E3a ligase), amino acids 24 to 87 (domain or fragment, human, UniProt Q05086 24-87, looked up)
chain: MKRAAAKHLIERYYHQLTEGCGNEACTNEFCASCPTFLRMDNNAAAIKALELYKINAKLCDPHP
notes: E6AP/UBE3A AZUL domain, human, amino acids 24 to 87, subcloned from HA-E6AP isoform II; zinc sulfate in the buffers; Isotope-labelled (15N, 13C) in some NMR samples; also called AZUL domain; source: E. coli BL21 (DE3), purified (Ni-NTA, thrombin cleavage, SEC); not shown: polyhistidine tag, N-terminal, cleaved
What is called Kd is the free concentration of one partner at which half of the binding sites on the other are occupied at equilibrium, for simple one-to-one binding. A lower Kd goes with tighter binding. For B2, the Kd in experiment [2] was found to be 11.6 nM; in the experiment with GST-hRpn10^305–377, 8.1 nM.

B3: His-hRpn10^196–377 (domain or fragment, human, UniProt P55036 196-377, looked up)
chain: MLGLGASDFEFGVDPSADPELALALRVSMEEQRQRQEEEARRAAAASAAEAGIATTGTEDSDDALLKMTISQQEFGRTGLPDLSSMTEEEQIAYAMQMSLQGAEFGQAESADIDASSAMDTSEPAKEEDDYDVMQDPEFLQSVLENLPGVDPNNEAIRNAMGSLASQATKDGKKDKKEEDKK
notes: pET14b with a thrombin site; the methods say that it was eluted with the His-tag intact; 15N-labelled for the NMR experiment with ubiquitin; source: E. coli BL21 (DE3), purified (Ni-NTA, imidazole elution, SEC); not shown: polyhistidine tag, N-terminal, kept
As to B3, the binding result (in experiment [1]; with ubiquitin) was “binds” in each case.
